Laboratory results taken from the DeepSol protein solubility set.

Test: soluble on expression in E. coli; label from the status in PepcDB or PDB records

Row | Sequence | soluble on expression in E. coli
1 | MGSDKIHHHHHHCASSLTQGKYVDGTHLVQAKGKKSQIVLEVKVDQGKIVDIKTKSHKETESLYLNAERLLPRIVANNGHEGIDAVSGATYSSNGILKAVNDLPRASSVQPEYVAVGAKEEQGDDFKLKWSIQPKLGLLVGDYYYEEARFRQGHMGSMTIVTNSQDRNDVILAEFNESGRPNYYTRLYQDVPKRMSEYNFSMGKKKGTAWVQSALTMEKLMVEQDKLTFEPNPNHDPKLANKLKEPNRLKYLGIDVVAGASNSIQQSMIPLTAKIHHKIHGEGTRLKFYQLAEKLVNEKGRWTGITAMLRLVVDPASKQIIKAHFDEIFADEKAQIQDASLKKFYRQSKYDSINYSEPARIGFNVMIDALNAHLQAGGSLFDINDLPATGDSGNYAATGFTKRSSSWDIYLNQAEQLYKKMRLDGVIAEHKHPAAK | not soluble
2 | MGSDKIHHHHHHDDNSYSLGDIWIAVATVVPEGNNVYYLRLDDGDKLWPAATNYPNYQPKPNQRALVNFTILADSTQSNLGGFSHYIKVNAIHNILTKSIAKNEGAANDSIYGTDPVSIYNNNMWIGDGYLNIYFETLWGGKTAHFINLIQPDAENDPYTLEFRHNAYDDPQYTIGAGRVAFNLSSLPDTKGETVDLVVNYWTSEGKQAYKLKYNSDKTKMEDTSQGYTNDSISNITDMK | not soluble
3 | MGSDKIHHHHHHEISDGVVRIGLLTDMSGAFSQFSGHGSVVAAQMAIDDCLAAECKGMKIELLSADHQNKTDIALAKAREWADVNKVDAYADMVNSAVALAMQSLAVQKKKAALFAGGPLRISNEDCQPEYAVQWMWDTYSQTAAAIKGLAKPKQGWYFITVDYAYGNAAVAEARKQLEAIGAHTVGESKHPLNSNDMSSQIIAAQQSKADVVAFANSGADSANAIKTASEFKLGAKKLQAAFFPTIYEIKGIGLAQAKGLRFPESFYWDIDDGTRRFSKRFMDIYKKGPPSLTHAGVYSSVYHYLKAVAATKSDDAQTVIRKMHELPIRDDVVRNPKLRPDGRMVHDYYYFRVKSPQESKGPWDLYALEKTLPGDEVFLPVAESQCRVFKGQAK | not soluble
4 | MGSDKIHHHHHHENLYFQGMWKSISQVLAEQFGAYYFIKHKEKLYSGEMNEIWLINDEVQTVFVKINERSYRSMFRAEADQLALLAKTNSINVPLVYGIGNSQGHSFLLLEALNKSKNKQSSFTIFAEKIAQLHQIQGPDKYGLDFDTWLGPIYQPNDWQTSWAKFFSENRIGWQLQICKEKGLIFGNIDLIVQIVADTLSKHNPKPSILHGNLWIENCIQVDDKIFVCNPACYWGDRECDIAFSSLFEPFPTNFYQRYNEIYPLEEGYLERKLIYQLYYLLNFSYRYYNKKQSYVSLTQKLINQILHKIDK | soluble
5 | MGSDKIHHHHHHEQEDKVSGEKTLAVVSASSDDRPSTRGIINDNTYALGVFRTTANTYAPLYNVKHIYSGGEWGADDVIKVDYRNASFFAYYPYHTATGNYAGLAGGTTLTLQAQLFNAGEDICYGAGEASGGGPVSVYNPFVEFLNMKHAYARLRLTLTRGEKFDKTKKCNIQNITFKSNNANFYLTRSLDIASTAGATGGSAVAAGYVHNPNVNIATGKSVTYEYMFPPQPLDGSKLTILVTVDGVTRSCDISTLGSSLDSGKYYGVSLTFTDVGIILSSAVVTVNNFGGQGNTQVDTEL | not soluble
6 | MGSDKIHHHHHHFNQYRENVELTAQRLEATYRASNILNLGVACLKKHFGFLGMEINWSTGSVTWFDDFRKRVLLQSDGDAWENVFSLLDTEKYYNLSSDIDFSTEASKLGFSNFEAVAIPFKNNPFFALLVVRAQVGKAVVYKYAVLSSDFLNKYAYFTEKETRPDGDKIYFITQDIIDGPFRSNDVIHVKGEPLFKGSVEFKDIDLEAGEGPRYENPPPKYLTEEDIKKYNIEKIKDYYSQQIERIVKPASEVVLSSEPVGIELPSINEFVESWEEKENDKTIYYKKQREIVYTLEFNTPKGSSGNDYLIKVSYKEVYRIYKSEDQEKWNFVREEVLGEGELFHIKSKPNSDQYHLVLQGNEAREFLGLDRNEYDIYFNGVIKTDNDVYLKNMSEGNIKPMFVDGRYTIVANNIYIEDHIIYNDYREVLEEIADKEKISGNSDQKIAQAVIRKLGVDGNIEEDYSELLKNHESDDFLNLVAYKNVVITDKKPNMKIFASIYAFTGSFYVKGYNEKDFLKNNERELTERELTIFGSLAQYVRGAVGTFYWSRDGKPTIKTGYRKNYIYDWRILKGFSVFGTPTVPKESNILNVREVY | not soluble
7 | MGSDKIHHHHHHGGCVRDVIDDVPGTDEDYAADKKDVVLIRMGTNDAEVKDITSRLFNNIPSSWEIGKKTIVDYDKMKDPETELNADIKNPKIYMTVILNIDDVISGKYPISLFRMLKFYKRDFYVIATQSTPEQKEEMLSLIGVYMEAGYYAINYDNVQHYRIFPSADPYAKDNMIGKGVASFNQKLLTRSADTLPEGNDPDPGYNAQMADKEALKRIEIYNRIYGYAQGDMNYSMQAVPYKMKPGAAPDVIIDNSWAIDAYNFQIYSKNNNCILSITNNAGNGFTANIKDYTTPKGANVYAYIWNLMREASSEITVHSDGGIFREISYQPQTVNHGASYTENSFWKVSVSVSPTKLEDKPWEAFKVSFGKESSTEVSYKTKSMDYSCKGQFGNGLYSKLWQFIPGEFYDRAEAFVYETSQGLRWIDAAQAMTPNYVTWGGWTLRQNYLNHINNSMKLHQQQCIYSLESDAQPGVVSVAITDAIDLQKTYVHYNCGIRYGHDSARTDLKMSKMVWIDFRQWDN | not soluble
8 | MGSDKIHHHHHHGNSKSRNDRTETVDKEVIKAPEFDADSAYQYIQVQADFGPRVPNTQAHKECGEYLAGQLEKFGAKVYNQYADLIAYDGTILKSRNIIGAYKPESKKRILLCAHWDSRPYADNDPDPKNHHTPILGVNDGASGVGVLLEIARQIQKEQPALGIDIVFFDSEDYGIPEFYDGKYKQDTWCLGSQYWARTPHVQNYNARYGILLDMVGGKDATFYYEGYSARTARSEMKKIWKKAHELGYGKYFVKEDGGETVDDHIYVNKLARIPCVDIINYDAGNPQSSFGSFWHTVNDTMENIDRNTLKAVGQTVMDVIYNEK | not soluble
9 | MGSDKIHHHHHHLKLTKNIVSIVTDVILNESEAIKNLVNHINDDFQHIIDAILSCKGRVVITGIGKSAIIGNKIVATLNSTGTPALFMHAADAIHGDLGMIQGGDVVICISKSGNTPEIKVLVPLIKNRGTILIGMVGNVDSYLAVQSDYVLNVTVEREACPNNLAPTTSTTATLVMGDALAVALLECRNFSSEDFAQLHPGGALGKQLYLRVNDVYTANEKPMVAPDATVKDVILEISSKRLGAAAVVDSAGILQGIITDGDLRRMLNAHDSFKQLCAADIMTKAPKTIDADEFAASAMLLMQSKNITQLIVMKNENFAGFIHIHDLLKEGIV | not soluble
10 | MGSDKIHHHHHHLLDYAGAIEEFSHALQLTPYFAEAYLQRGLAYYDSGAILKAVSDYTEALKLNPESVEAYYCRGLARVALKNLPGALEDVERAIRLNLNYAAAYNLRGMVRRKQGYVQDAIANFKKAAQLYLEQQDKENCRLCLERIKQLQPQELPVLQQSRSPNAPILSTNDYFTQLLEKAEKGDTQEALADLNWVLKADSQDAQAYCCRGVVRCKMGDYREAIADFNQALRLNFQDAIVYRNRGKARSILGDHQGAIADLNQALQMQPQDALVYIARGNAYRSTGNYLGAIQDYTQALQINPDDAQAYYNRGIAYTCLEEMQNAVEDYQRAASIFCEQEDWGNYQQVLSSLEKIQKFSPQSKKQKYNLLHQRLLQMVGGYWEIAERLIQQKQDYHPGMSDEWYLQKVIDDLERDRGR | not soluble
11 | MGSDKIHHHHHHLNTDPSTAVPSDDAIKNIDDAQVALNGIYRLASAHSYYGDNYLYYADCRGEDVQARINKGAGRRVSPYYFFDVTADDNFNITLVWNQPYKVIHQANSLIEKLDAGNAGNARPEEVARIKSEALAMRGLALFDLTRLFGMPYTLDNGASLGVPIEIQTTLEDHAPERNTVAQCYEQVLKDLNDALGGLTKEKHDAYMNYWSVKALLSRVYLYMNDNENALKCAEEVINDNGGIYRLFTHDEYPSVWGKDFNSESLFEFYFTMSEPSGGSGGEGAPMVYADNVKDWNNLILTKAYLDLLNEDPEDVRHVFPHLPENAVADTLPVAAKGQPKYLIKYPGKSGSVTDAVSTVNPQDNDLCILRLSEVYLNAAEAAFKIGNTEKALTYLNAIVTRANPAKSVTSADLSLERILKERRKELVGEGHAFFDYMRNGKSVDRSGGWHLTMPEDARVIAPSDPRVALPIPQTEIDANPNIVQNPR | not soluble
12 | MGSDKIHHHHHHLPAHLTPIQMEPEKALLRVHCQSDIDQLLSESVVFTLLSERNLGPKMLGVFPGGRFEQFIPSRALQCLEISKPGLSKLIAPIVARVHTLDAPIPKEPQTLQTARQWLERFKKTPAGERPIEMYLTQAKVPKSDYPSTITVAQLERELNFVEFFLQHSHSPVVFSHNDLQEGNFLLIDGYKLADDGTVLTPDGKPTNDDPLSLIDFEYCSYNYRGFDLGNHFCEYGYDYNEAEAPYYKIHQHYFEVEKERKVFCEAYLDEVYKMRACGDNPHFPSDLVTGDREKDLNKIIEESILFMPVSNIFWVCWSLINAEESSIAFDYGAYGRDRLALYFHQKKNLEKYLSNL | not soluble
13 | MGSDKIHHHHHHLRASSSIRVGAERAHLAIGAASKRMADLEASIGVQLFERHARGVALTAAGEALERHTQRILNDMDRMTAEMSDYAAGVVGVVRLWANTSSVTQFLPTDIAAFSVVHPDIRIELEEQDSEQVALAVVDGAADFGIMADRMPTLGLQAMLYRKDHLFLVVPDGHPLTQRESVSFVDALEFDFVSLARNTSLAKRLQAATAFSGGQIKLRIQVRSFDAMCLMVAAGPGIAILPDAAVGPHLRSMDLCRIPLSENWTRRELFICARDLNALPRPASLLVNHLIGATPDAVAVR | not soluble
14 | MGSDKIHHHHHHMAAIAGLYVYPIKGLDSEHRSTATLRTHGQLHHDRTFTLVDSDTGSIVTAKRRPALHAFRTDYEPETGTLTVTDPDGQRASFSLGDDEGLSAAGDWFDSRLAVSVSMRSDPTGFVDRSDMGPAVVSTATLEAIADWFDSMTVAGARRRLRANIEIEGVPAFWEDRFVGDGAPAFEVGGVRFEGVTPCNRCVVPSRDPDTGEQLPEFRKTFCANRERTFPEWADGDAFDHEYAAMILARAPDISGGETLAVGDGVAVLDEAA | not soluble
15 | MGSDKIHHHHHHMADETISLDYYAPRFRVEIDGETIPQDGIVSVEVDETLDAPAMVSLAFNETLDPRSQTFAWLDNPKLVPGAEVKVFLGYTGRAVPAPKPLFEGRLHTLTPAFQNSGVPSLMVQGYDHSHGLQKVKSHFSRTNARASDAASEIARLNGLDASGVEATATVHPSIRQGEDEVDLEFLRRLARDLGFEVFVRGKALMFRTPADEETELLTFQWGRNLVSFTPRLSTSAQVSEVRVRGWNPATKERIEGKATVADLKGLAGGVSGAEQAGSGGEPVVRSIEDRPVFSREEADALARAELNRLNDGFITGTGETIGMPELRPGITVAIQGIGTRFSGRYYVKGARHSLGDSGYRTTFEVRRNALGSL | not soluble
16 | MGSDKIHHHHHHMADFSNQIITIKKGLDLPIAGEPRQIIESGNKPSQVAILGEEYVGLKPTMLVEVGDKVKKGQPLFEDKKTKGVLFTAPASGEIVAINRGDRRVLQSVVIGCDGLDVNEQIRFDILPDVISLSRQVVQDQLVSSGLWTALRTRPFSRVPALDSQPAGIFVTAIDTNPLAADPRLIIAEQLEAFKTGLQVLTRLTEGKVYLCQDKGDAIACDVSPNLEIRRFTGVHPAGLAGTHIHFTLPVSLERQVWHIGYQDVIAYGKLFQTGELYTDRIIALGGPSVLNPRLLRTQLGAELSVLVADEIKPGNNRVVSGSVLSGHTAAGVHDFLGRFHNQVSVLAEDAQHQVLPWVRGGSDKFSITRAVTSRLFGASKRFEFTTHQGGSQRAMMAFGQLDRVMPLDILPTLLVRDLVVRDTDEAQALGALELDEEDLALCTFVCPGKYDFGKELRACLDVIEREG | not soluble
